Assay results from patent US20240336672A1 (INSTITUT PASTEUR, published 2024).

How the values were obtained:
[1] = target: T1, SARS-CoV-2 Spike ectodomain (tri-S), Wuhan (SARS-CoV-2, UniProt P0DTC2 14-1208); assay: infrared immunoblot on heat-denatured tri-S
[2] = target: SARS-CoV-2 spike, Beta variant (B.1.351), on virus or pseudotyped particles (SARS-CoV-2); assay: cell-based or functional assay
[3] = target: T2, SARS-CoV-2 spike, Delta variant (B.1.617.2), on virus or pseudotyped particles (SARS-CoV-2); assay: cell-based or functional assay
[4] = target: SARS-CoV-2 spike, Gamma variant (P.1), on virus or pseudotyped particles (SARS-CoV-2); assay: cell-based or functional assay
[5] = target: T1, SARS-CoV-2 Spike ectodomain (tri-S), …; assay: ELISA
[6] = target: SARS-CoV-2 RBD (B.1.351) domain (SARS-CoV-2); assay: ELISA; design: unit not given beside the values
[7] = target: SARS-CoV-2 omicron variant B.1.1.529 Spike ectodomain (tri-S, HexaPro) (SARS-CoV-2, UniProt P0DTC2 14-1208); assay: ELISA; design: unit not given beside the values
[8] = target: SARS-CoV-2 omicron variant B.1.1.529 RBD domain (SARS-CoV-2); assay: ELISA; design: unit not given beside the values
[9] = target: T2, SARS-CoV-2 spike, Delta variant …; assay: cell-based or functional assay; remark: listed apart in the source
[10] = target: SARS-CoV-2 RBD (B.1.351) domain (SARS-CoV-2); assay: ELISA; design: unit not given beside the values; remark: listed apart in the source
[11] = target: T3, SARS-CoV-2 delta variant B.1.617.2/3 RBD domain (SARS-CoV-2); assay: ELISA; design: unit not given beside the values
[12] = target: SARS-CoV-2 RBD (P.1) domain (SARS-CoV-2); assay: ELISA; design: unit not given beside the values
[13] = target: SARS-CoV-2 delta plus variant RBD (SARS-CoV-2); assay: ELISA; design: unit not given beside the values
[14] = target: SARS-CoV-2 RBD (B.1.1.7) domain (SARS-CoV-2); assay: ELISA; design: unit not given beside the values
[15] = target: T1, SARS-CoV-2 Spike ectodomain (tri-S), …; assay: ELISA; design: unit not given beside the values
[16] = target: T4, SARS-CoV-2 kappa variant B.1.617.1/3 RBD domain (SARS-CoV-2); assay: ELISA; design: unit not given beside the values
[17] = target: T3, SARS-CoV-2 delta variant B.1.617.2/3 …; assay: RBD-ACE2 competition ELISA
[18] = target: SARS-CoV-2 RBD (B.1.351) domain (SARS-CoV-2); assay: RBD-ACE2 competition ELISA; design: unit not given beside the values
[19] = target: T3, SARS-CoV-2 delta variant B.1.617.2/3 …; assay: RBD-ACE2 competition ELISA; design: unit not given beside the values
[20] = target: SARS-CoV-2 RBD (P.1) domain (SARS-CoV-2); assay: RBD-ACE2 competition ELISA; design: unit not given beside the values
[21] = target: SARS-CoV-2 delta plus variant RBD (SARS-CoV-2); assay: RBD-ACE2 competition ELISA; design: unit not given beside the values
[22] = target: SARS-CoV-2 RBD (B.1.1.7) domain (SARS-CoV-2); assay: RBD-ACE2 competition ELISA; design: unit not given beside the values
[23] = target: T4, SARS-CoV-2 kappa variant B.1.617.1/3 …; assay: RBD-ACE2 competition ELISA; design: unit not given beside the values

B1: Cv2.3132 (IgG) (antibody, V domains shown)
VH: EVQLVESGGGLVKPGGSLRLSCAASGFTFSDYYMSWIRQAPGKGLEWVSYISSSGSVQYYADSVKGRFTISRDNAENSLYLQMNSLRAEDTAVYYCARYYYDSSGYWKRLDYWGQGTLVTVSS
VL: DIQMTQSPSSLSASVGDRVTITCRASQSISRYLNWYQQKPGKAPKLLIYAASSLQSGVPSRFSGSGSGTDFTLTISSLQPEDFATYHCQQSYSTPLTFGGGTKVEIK
[1]
  binding result: binds

B2: LY-CoV555 (parental IgG1 version) (antibody, V domains shown)
VH: QVQLVQSGAEVKKPGSSVKVSCKASGGTFSNYAISWVRQAPGQGLEWMGRIIPILGIANYAQKFQGRVTITADKSTSTAYMELSSLRSEDTAVYYCARGYYEARHYYYYYAMDVWGQGTAVTVSS
VL: not shown
[2]
  IC50, in vitro neutralisation: > 25 nM
[3]
  IC50, in vitro neutralisation: > 25 nM
[4]
  IC50, in vitro neutralisation: > 25 nM

B3: CV2.1388 (antibody)
heavy chain: QVQLVQSGPEVKKPGTSVKVSCKASGFTFTSSAVQWVRQARGQRLEWIGWIVVGSGDTNYAQKFQERVTITRDMSTSTAYMELSSLRSEDTAVYYCATDRQAGSRTYYFPGEGWFDPWGQGTLVTVSS
light chain: QSVLTQPPSVSAAPGQKVTISCSGSTTNIGNNYVSWYQRLPGTAPKLLIYDNNKRPSGIPDRFSGSKSGTSATLGITGLQTGDEADYYCGTWDSSLSGVVFRRRDQADRPR
[5]
  binding result: no binding (tested: 10 µg/ml)

B4: CB6 (parental IgG1 version) (antibody, V domains shown)
VH: EVQLVESGGGLVQPGGSLRLSCAASGFTVSSNYMSWVRQAPGKGLEWVSVIYSGGSTFYADSVKGRFTISRDNSMNTLFLQMNSLRAEDTAVYYCARVLPMYGDYLDYWGQGTLVTVSS
VL: not shown
[2]
  IC50, in vitro neutralisation: > 25 nM
[4]
  IC50, in vitro neutralisation: > 25 nM

B5: CV2.1174 (antibody, V domains shown)
VH: EVQLVESGPEVKKPGTSVKVSCKASGFTFTRSAMQWVRQARGQRLEWIGWIVVGSGNTNYAQKFQERVTITRDMSTSTAYMELSSLRSEDTAVYYCAARQDYYYYGMDVWGQGTTVTVSS
VL: DIQMTQSPSSLSASVGDRVTITCRASQGMSNSLDWDQQKPGKAPKLLLYAASRLKSGVPSRFSGSGSGTDYTLTISSLQPEDFATYYCQQYYSDPPKTFGQGTKVEIK
[5]
  binding result: no binding (tested: 10 µg/ml)

B6: Cv2.5179 (recombinant human IgG1) (antibody, V domains shown)
VH: QVQLVQSGPEVKKPGTSVKVSCKASGFTFTSSAVQWVRQARGQRLEWIGWIVVGSGNTNYAQKFQERVTITRDMSTSTAYMELSSLRSEDTAVYYCAAPHCSSTSCYDAFDIWGQGTMVTVSS
VL: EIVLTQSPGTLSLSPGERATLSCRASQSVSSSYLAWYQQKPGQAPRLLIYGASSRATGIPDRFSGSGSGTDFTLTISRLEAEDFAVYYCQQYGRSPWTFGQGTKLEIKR
notes: also called Cv2.5179 IgG
[6]
  AUC: 12
[7]
  AUC: 3
[8]
  AUC: 2
[9]
  IC50, S-Fuse neutralisation: 0.0052 µg/mL
[10]
  AUC (Binding): 11
[11]
  AUC (Binding): 12
[12]
  AUC (Binding): 11
[13]
  AUC (Binding): 12
[14]
  AUC (Binding): 11
[15]
  AUC (Binding): 12
[16]
  AUC (Binding): 12
[17]
  IC50 (read off the curve): ~0.4 µg/mL
[18]
  AUC (Blocking): 49
[19]
  AUC (Blocking): 115
[20]
  AUC (Blocking): 50
[21]
  AUC (Blocking): 144
[22]
  AUC (Blocking): 64
[23]
  AUC (Blocking): 114
